# Reference: patent US7193044B1, “Compounds and methods for regulating apoptosis, and methods of making and screening for compounds that regulate apoptosis” (Immunogen, Inc., priority 2000, dated 2007)
# What was measured:
# [1] = system: BAD phosphorylation in COS-7 cells; experiment: BAD phosphorylation in COS-7 cells (western blot band-shift); format: cell-based; settings: anti-HA western blot
# Text: Mouse FL5.12 cells were then transfected with the expression vector encoding the shorter murine BAD of SEQ ID NO:3 or one of the three BAD mutants. Total mRNA was isolated from the transfected FL5.12 cells, and reverse transcribed into cDNA. The cDNA was then subcloned into the expression vector pcDNA3 so that the amino acid sequence of the BAD or mutant BAD, encoded by the subcloned cDNA, was in-frame and operably linked to an N-terminal hemagglutinin (“HA”) epitope encoded by the expression vector. The expression vectors encoding the HA-tagged shorter murine BAD and mutant BAD were expressed in COS-7 cells. Whole cell lysates (“WCL”) were then prepared from the COS-7 cells expressing the polypeptides. The phosphorylation of the shorter murine BAD of SEQ ID NO:3 and mutant BAD were detected by a western blot of the WCL, probed with an anti-HA antibody (“anti-HA antibody”). […] Of note, each of the BAD mutants resolved as a doublet on a 16% SDS-PAGE, even though in the amino acid sequence of each of the BAD mutants one or both of the serines corresponding to Ser112 and Ser136 were mutated, i.e., substituted with alanine. […]
# HeLa cells [2] = experiment: Fluorescence-based beta-galactosidase assay of BAD-induced cell death in transfected HeLa cells; design: species or system human; settings: compared to wild-type BAD
# Experimental: FIG. 12(B) is a graphic representation of the results of a β-galactosidase assay. HeLa cells were co-transfected with the β-galactosidase gene and either HA-BAD (“WT”), HA-BAD S155A (“S155A”), HA-BAD S112A/S136A (“S112A/S136A”) or HA-BAD S112A/S136A/S155A (“AAA”). Transfected cells were then cultured in serum-free medium (SFM) or SFM supplemented with EGF (SFM+EGF) for 12 hours. Cell lysates were prepared and BAD-induced cell death was measured by the loss of β-galactosidase activity in a fluorescence-based assay. Fluorescence was measured at 465 nm. Results shown are the average and standard deviation of triplicate transfections (this experiment was repeated two more times with similar results). Expression levels of HA-tagged BAD and BAD mutants in transfected cell lysates were detected by anti-HA western blot analysis: HA-BAD (“WT”), HA-BAD S155A (“A”), HA-BAD S112A/S136A (“AA”), and HA-BAD S112A/S136A/S155A (“AAA”).
# FIG. 12(C) is a graphic representation of the results of a β-galactosidase assay. HeLa cells were co-transfected with the β-galactosidase gene and either an empty vector (“CTL”), wild-type BAD (“WT”), the BAD S155A mutant (“S155A”) or the BAD S155D mutant (“S155D”). Cell lysates were prepared and BAD-induced cell death was measured by the loss of β-galactosidase activity in a fluorescence-based assay. Fluorescence was measured at 465 nm. Results shown are the average and standard deviation of triplicate transfections (this experiment was repeated two more times with similar results).
# HeLa cells were co-transfected with the β-galactosidase gene and either wild-type BAD, BAD S155A, BAD S112A/S136A or BAD S112A/S136A/S155A. […] Cell lysates were prepared and BAD-induced cell death was measured by the loss of β-galactosidase activity in a fluorescence-based assay. […]
# To measure β-gal activity, HeLa cells were plated in 12-well plates at 5×10^4 cells/well one day prior to transfection. […] Beta-gal activity was measured in extracts using a fluorogenic substrate (MUG, BIO-RAD FluorAce™ β-gal Reporter Assay, #170–3150). […]
# HeLa cells [3] = experiment: Beta-gal ELISA apoptosis assay in transfected HeLa cells; format: cell-based, human; settings: HeLa cells, 24 hours post-transfection
# Experimental: Because BAD Ser155 phosphorylation, like Ser136 phosphorylation, prevents BAD from binding to Bcl-XL (FIG. 1), it was possible that by analogy, Ser155 dephosphorylation promotes cell death. To test this idea, HeLa cells were co-transfected with BAD or various BAD serine mutants and a β-gal reporter plasmid. Twenty-four hours post-transfection, cell viability was analyzed by β-gal ELISA.
# To test this idea, HeLa cells were again co-transfected with BAD or various BAD serine mutants and a β-gal reporter plasmid. Forskolin was then added to half of the cultures while the other half was left untreated. Beta-gal ELISAs were performed 24 hours post transfection. […] Thus, phosphorylation of Ser155 rescues cells from BAD-induced apoptosis, while substitution of Ser155 with a nonphosphorylatable residue results in increased cell death and the failure of cells to be protected from induced PKA activity.
# Beta-gal ELISA assays were performed using the β-gal ELISA system from Boehringer Mannheim, according to manufacture's instructions. Cells were transfected with BAD (or BAD mutant) and β-gal in a ratio of 5:1. The transfected cells were trypsinized and distributed into 96-well tissue culture plates. Twenty-four hours after transfection, cell extracts were obtained by lysing the cells in lysis buffer. Cell extracts (200 μl) were then added to anti-β-gal-coated microtiter plates (MTP). The MTPs were foil-covered and incubated for one hour at 37° C. Solutions were then decanted and the MTPs were washed, followed by the addition of 200 μl of anti-β-gal-DIG working solution, and incubation for an additional hour as described above. Solutions were again decanted, the MTPs washed and 200 μl of DIG-POD working solution were added. The MTPs were incubated for another hour at 37° C., the solution decanted, and the wells washed. 200 μl of substrate with enhancer were added to each well and incubated at room temperature until color development. The β-gal activity was measured by the absorbance of the sample at […]. Data were based on triplicate wells with standard deviations calculated.
# [4] = system: BAD Ser155 phosphorylation in HeLa cells; experiment: BAD phosphorylation in HeLa cells (western blot band-shift / anti-phospho-Ser155 antibody); format: cell-based, human; settings: HeLa cells
# Experimental: A mammalian expression vector encoding mutant HA-BAD S155A, derived from the shorter murine BAD of SEQ ID NO:3, was constructed. HA-BAD S155A has an amino acid sequence wherein the serine at a position corresponding to Ser155 is substituted with alanine. A western blot was performed on WCL prepared from cells expressing the shorter murine BAD (SEQ ID NO:3), HA-BAD S112A, HA-BAD S136A, or HA-BAD S155A, and probed with anti-HA antibody.
# A western blot analysis, probed with anti-HA antibody, was performed on lysates produced from the Forskolin treated and untreated (control) cells to determine whether Forskolin could induce the phosphorylation BAD or mutant BAD.
# HeLa cells transiently expressing HA-BAD, HA-BAD S155A, HA-BAD S112A/S136A, or HA-BAD S112A/S136A/S155A were treated with Forskolin or a buffer control.
# The HA-BAD S112A/S136A double mutant was transiently expressed in HeLa cells, and transfected cell cultures were treated with each of the GPCR ligands, individually and as a group. A western blot analysis, probed with anti-HA antibody, was performed on lysates produced from the treated and untreated (negative control) cells. […] Forskolin (FK) and no treatment (−) were positive and negative controls, respectively (FIG. 6(a), […], respectively).
# Non-transfected HeLa cells were treated with Forskolin or L-epinephrine, followed by western blot analysis of cell lysates using anti-BAD antibodies.
# Transformants were treated with L-epinephrine, then lysed and subjected to anti-HA western blot analysis.
# To further test whether phosphorylation of Ser155 is dependent on the PI 3-kinase/Akt pathway, HeLa cells were transfected with the mutant HA-BAD S155A and pretreated with Wortmannin, an inhibitor of PI 3-kinase. These cells were then stimulated with epidermal growth factor (EGF), lysed and analyzed by western blot analysis.
# For immunoprecipitation of all HA-BAD species, 1 μg of the anti-HA antibody was added to the cell lysates, and incubated at 4° C. for one hour. Protein G agarose (Pierce) was then added (50 μl/fraction of 50% slurry) and followed by a one hour incubation at 4° C. Beads were washed with RIPA buffer, boiled in loading buffer (2% SDS, 10% glycerol, 5% β-ME, 60 mM Tris, pH 6.8, 0.002% Bromophenol Blue) and loaded onto polyacrylamide gels. After electrophoresis, proteins were transferred to nitrocellulose membranes, and blots blocked in western wash buffer (40 mM Tris, pH 8.0, 150 mM NaCl, 0.2% NP-40) with 5% BSA for one hour at room temperature. Blots were incubated with primary antibody diluted in western wash buffer with 3% BSA at room temperature for 1–2 hours, washed with western wash buffer and incubated with secondary HRP-coupled antibody diluted in western wash buffer with 1.5% BSA, and washed extensively. Polypeptides were detected with the ECL chemiluminescence according to the manufacturers instructions (Amersham).
molecule,measurement,setting,value
"HA-BAD S112A/S134A/S136A: HA-tagged mutant of shorter murine BAD, serines corresponding to Ser112, Ser134 and Ser136 substituted with alanine (protein, UniProt Q61337 1-204, looked up, variant S112A S134A S136A, HA tag, HA-tagged mutant of shorter murine BAD, serines corresponding to Ser112, Ser134 and Ser136 substituted with alanine) Bcl2-associated agonist of …: MGTPKQPSLAPAHALGLRKSDPGIRSLGSDAGGRRWRPAAQSMFQIPEFEPSEQEDASATDRGLGPSLTEDQPGPYLAPGLLGSNIHQQGRAATNSHHGGAGAMETRSRHSAYPAGTEEDEGMEEELSPFRGRARAAPPNLWAAQRYGRELRRMSDEFEGSFKGLPRPKSAGTATQMRQSAGWTRIIQSWWDRNLGKGGSTPSQ",phosphorylation of expressed BAD mutant (lambda phosphatase-sensitive higher molecular weight band),[1],does not eliminate the phosphorylation of BAD
"BAD S155D: BAD mutant, Ser155 replaced with aspartic acid to mimic the negatively charged phospho-Ser155 residue (protein, UniProt Q61337 1-204, looked up, variant S155D) Bcl2-associated agonist of …: MGTPKQPSLAPAHALGLRKSDPGIRSLGSDAGGRRWRPAAQSMFQIPEFEPSEQEDASATDRGLGPSLTEDQPGPYLAPGLLGSNIHQQGRAATNSHHGGAGAMETRSRHSSYPAGTEEDEGMEEELSPFRGRSRSAPPNLWAAQRYGRELRRMDDEFEGSFKGLPRPKSAGTATQMRQSAGWTRIIQSWWDRNLGKGGSTPSQ",pro-apoptotic activity,HeLa cells [2],no pro-apoptotic activity
"BAD S136A: mutant of shorter murine BAD, serine corresponding to Ser136 substituted with alanine; HA- or GST-tagged (protein, UniProt Q61337 1-204, looked up, variant S136A, HA or GST tag, mutant of shorter murine BAD, serine corresponding to Ser136 substituted with alanine; HA- or GST-tagged) Bcl2-associated agonist of …: MGTPKQPSLAPAHALGLRKSDPGIRSLGSDAGGRRWRPAAQSMFQIPEFEPSEQEDASATDRGLGPSLTEDQPGPYLAPGLLGSNIHQQGRAATNSHHGGAGAMETRSRHSSYPAGTEEDEGMEEELSPFRGRSRAAPPNLWAAQRYGRELRRMSDEFEGSFKGLPRPKSAGTATQMRQSAGWTRIIQSWWDRNLGKGGSTPSQ",effect of expressed BAD mutant on cellular survival / cell death,HeLa cells [3],next greatest effect
same,band-shift (phosphorylation) of expressed BAD construct in response to L-epinephrine,[4],significant band-shift
